Assays:
[1] = system: target-expressing SKOV3 tumors; conditions: mouse, in vivo
Procedure: In vivo studies were carried out with female CD-1 nude mice (Charles River Labs, Hopkinton, Mass.) with an age range between 6 and 15 weeks. Mice were housed in a ventilated rack with food and water ad libitum and a standard 12 hour day-night lighting cycle. For xenografts, animals were injected with 100 μl of cells in PBS. Cells were implanted subcutaneously in the right hindquarter. Implantation was performed under isoflurane anesthesia. For SKOV3, between 3×10^6 to 4×10^6 cells were implanted in each mouse. Under these conditions, useable tumors (100 to 300 μg) were obtained in 3 to 4 weeks in greater than 80% of animals injected.
Mice were given tail-vein injections of ˜1 μg of ^99mTc-labeled polypeptides (˜3 μCi/1 μg). […] Three mice were euthanized at each timepoint and tissues of interest dissected and counted on a Perkin Elmer Wallac Wizard 1480 Gamma Counter. […] Urine from cages was pooled with the bladder and also counted. The remaining tissues were counted and the sum of all tissues plus urine for each animal was summed to provide the total injected dose. The % injected dose for each organ was determined based on this total, and organs were weighed for determination of the % injected dose per gram, (% ID/g). […]
Mice were given tail-vein injections of ˜1 ug of ^99mTc-labeled polypeptides (˜10 μCi/1 μg). […] Urine from cages was pooled with the bladder and also counted. […]

[2] = mouse, in vivo, iv, 3 MBq, 1.5 h
Procedure: Following intravenous injection of 3 MBq of activity (2.5 MBq for the 2 min time point), animals were sacrificed at 2, 90, 120 and 180 min post injection and retention of radioactivity was assessed in key organs.

Substance | activity in the kidneys [1] [ID/organ] | kidney retention [2] [% ID]
Z02891 (SEQ. ID No. 2) ^18F-fluorobenzyl oxime: Z02891-ONH2 (Mal-AO linker on C-terminal cysteine) conjugated with [18F]4-fluorobenzaldehyde | 0.95±0.07 | 
[18F]AlF-NOTA(COOH)-2-Z02891(SEQ ID No. 2) [Compound 5] |  | 70.3
